Source: patent publication US12366576B2, “Compositions, assays, and methods for direct modulation of fatty acid metabolism” (Dana-Farber Cancer Institute, Inc., priority 2016, dated 2025)
Bridge positions count the residues as written; N and C are the ends. Square brackets hold non-standard residues; d marks the D form. Ends that are not written are not given here. * marks the point of attachment. Biotin = O=C1N[C@H]2[C@H](CS[C@H]2CCCCC(=O)*)N1; S5 = C=CCCC[C@](C)(N)C(=O)O

Experiments:
[1] = tested on: endogenous MCL-1; assay: Biotinylated SAHB pulldown from MEF lysates, anti-MCL-1 Western analysis; assay type: binding, mouse; conditions: wild-type MEF lysates, 15 nmol biotinylated SAHB
Description: An exploratory proteomics analysis was conducted to identify proteins that interact with the MCL-1 BH3 domain helix. An extensive library of MCL-1 stapled BH3 peptides (FIG. 2) was generated to both identify novel protein interactors by mass spectrometry and then deploy the stapled peptide constructs as novel probes to dissect and pharmacologically modulate the identified protein interactors and associated signaling pathways. As an example, an N-terminally biotinylated stapled peptide designed based on the sequence of MCL-1's BH3 domain (Btn-MCL-1 SAHBD), or vehicle, was incubated with wild-type mouse embryonic fibroblast (MEF) lysates, followed by high stringency streptavidin capture. To validate the proteomics workflow and ensure that Btn-MCL-1 SAHBD could, in fact, engage protein interactors in a lysate, eluates were first run on a gel for anti-MCL-1 Western analysis. […] For mass spectrometry (MS) analysis, eluates were run on a reducing/denaturing gel followed by Coomassie staining (FIG. 4) and in-gel digestion was performed before injection on the instrument.
The binding determinants for the MCL-1 BH3/VLCAD interaction were investigated by generating a series of biotinylated MCL-1 SAHBD alanine point mutants (FIG. 18A) and performing streptavidin pull-downs from MEF lysates, followed by VLCAD and MCL-1 western analysis of the resulting eluates. […] Native alanines and residues not mutated are colored white.
Wild-type MEFs were trypsinized, washed once with cold PBS, and lysed on ice with NP-40 lysis buffer (50 mM Tris, pH 7.4, 150 mM NaCl, 0.5% (v/v) NP-40, complete protease inhibitor pellet (Roche)) using 1 ml of lysis buffer for every 10 million cells lysed. Cellular debris was pelleted at 14,000 g for 10 min at 4° C., and the supernatant was quantified using the BCA Protein Assay Kit (Thermo Fisher Scientific). 2 mg of lysate per pulldown were then exposed to 50 μL of pre-equilibrated High Capacity Streptavidin Agarose beads (Thermo Fisher Scientific). […] The beads were then pelleted and washed with NP-40 lysis buffer three times before eluting the protein sample from the beads by heating at 70° C. for 10 min in SDS loading buffer. Samples were then subjected to electrophoresis and either Western analysis or Coomassie stain (SimplyBlue Safe Stain, Thermo Fisher Scientific). […] Coomassie stained gels were then processed for proteomics analysis (see below). Biotinylated SAHB pulldowns of recombinant protein were performed as above incubating 5 nmol of SAHB with 10 pmol of rVLCAD in 500 μL total volume. Densitometry analyses were performed using ImageJ software.

[2] = biological target: T1, VLCAD (Homo sapiens, UniProt P49748); assay: Biotinylated SAHB pulldown of recombinant protein; assay type: binding; conditions: 5 nmol SAHB with 10 pmol rVLCAD
T1 construct: 10x His (N); made in house; host or cells: E. coli BL21(DE3), pET19b
T1 sequence (P49748 40-655): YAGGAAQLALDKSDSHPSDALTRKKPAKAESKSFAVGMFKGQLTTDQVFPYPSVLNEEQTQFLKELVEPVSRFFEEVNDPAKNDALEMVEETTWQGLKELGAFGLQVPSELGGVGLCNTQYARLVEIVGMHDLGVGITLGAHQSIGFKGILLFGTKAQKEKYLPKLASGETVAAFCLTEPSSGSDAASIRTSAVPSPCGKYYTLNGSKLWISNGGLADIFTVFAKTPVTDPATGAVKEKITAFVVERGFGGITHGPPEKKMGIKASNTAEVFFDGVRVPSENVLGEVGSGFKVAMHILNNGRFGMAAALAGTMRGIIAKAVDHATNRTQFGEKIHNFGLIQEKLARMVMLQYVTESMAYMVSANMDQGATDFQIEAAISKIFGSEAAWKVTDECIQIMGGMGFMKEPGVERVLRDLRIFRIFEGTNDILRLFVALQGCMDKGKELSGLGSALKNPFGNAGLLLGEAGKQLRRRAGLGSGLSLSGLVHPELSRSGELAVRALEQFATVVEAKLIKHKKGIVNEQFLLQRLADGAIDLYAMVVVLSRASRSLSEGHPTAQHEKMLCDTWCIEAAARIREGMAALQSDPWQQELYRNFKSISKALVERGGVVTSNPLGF
Text: To validate the MS result, the pulldowns were repeated and eluates run on a gel for anti-VLCAD Western blot analysis. […] All peptides faithfully recapitulated native BH3-binding propensities for endogenous MCL-1 protein (FIG. 8). The eluates were then probed for the other members of the acyl-CoA dehydrogenase family that manifest shorter fatty acid substrate specificities. MCL-1 SAHBD was able to pull down VLCAD, but not MCAD or SCAD (FIG. 9). Because the traditional MCL-1 staple location differs from that of the BIM, BID, and BAD SAHBs, it was important to confirm that the observed VLCAD binding specificity was due to BH3 sequence selectivity, not staple position. A BIM SAHB with the traditional MCL-1 staple (BIM SAHBF), and a MCL-1 stapled peptide with the traditional BIM staple (MCL-1 SAHBA), were generated. […]
Wild-type MEFs were trypsinized, washed once with cold PBS, and lysed on ice with NP-40 lysis buffer (50 mM Tris, pH 7.4, 150 mM NaCl, 0.5% (v/v) NP-40, complete protease inhibitor pellet (Roche)) using 1 ml of lysis buffer for every 10 million cells lysed. Cellular debris was pelleted at 14,000 g for 10 min at 4° C., and the supernatant was quantified using the BCA Protein Assay Kit (Thermo Fisher Scientific). […]

[3] = biological target: T1, VLCAD; assay: Biolayer interferometry; assay type: binding; conditions: Biotin-PEG peptide immobilized on streptavidin sensors
Description: (§1) To measure the direct binding interaction, ^19F NMR binding studies were conducted using fluorinated analogs of MCL-1 SAHBD. […] Both SAHBs, however, bind MCL-1ΔNΔC, as illustrated by a chemical shift of the peptide NMR peak in both cases (FIG. 15). […] To perform these experiments, N-terminal Btn-PEG analogs of the peptides were immobilized onto streptavidin probes that were then placed into protein solutions at a variety of concentrations to measure ligand-target association.
VLCAD. Mature human VLCAD lacking its cleavable leader sequence (aa 40-655) (NP_000009.1) was subcloned into the pET19b vector (Novagen) using NdeI and XhoI restriction sites. Correct insertion was confirmed by DNA sequencing. The 10× His-tagged VLCAD construct was expressed in BL21(DE3) E. coli, and once cells reached an OD of 0.8 after growing at 37° C., they were induced with 0.5 mM […] (IPTG) (Gold Biotechnology I2481C) at 37° C. for 4 hours. Bacterial pellets were resuspended in lysis buffer (500 mM NaCl, 50 mM HEPES, 5% glycerol, pH 7.5, complete protease inhibitor tablet) and lysed by microfluidization (M-110L; Microfluidics). […]
BLI binding measurements were performed using an Octet Red384 System (ForteBio). […] Binding parameters were calculated using the accompanying Octet Software version 9 (ForteBio).

[4] = biological target: T2, MCL-1ΔNΔC (Homo sapiens, UniProt Q07820); assay: Biolayer interferometry; assay type: binding; conditions: Biotin-PEG peptide immobilized on streptavidin sensors
T2 construct: The MCL-1ΔNΔC construct was grown and expressed in E. coli as previously described; made in house; host or cells: E. coli BL21(DE3)

[5] = biological target: T1, VLCAD; assay: 19F NMR binding study with fluorinated SAHB; conditions: fluorinated SAHB 25 μM, VLCAD 0-125 μM
Description: as §1
VLCAD. Mature human VLCAD lacking its cleavable leader sequence (aa 40-655) (NP_000009.1) was subcloned into the pET19b vector (Novagen) using NdeI and XhoI restriction sites. Correct insertion was confirmed by DNA sequencing. […]
(§2) To determine binding of SAHBs to VLCAD, fluorinated SAHB (25 μM) and VLCAD (0-125 μM) were mixed together in VLCAD FPLC buffer including 10% D2O to a final volume of 500 μL. […] The extent to which VLCAD bound the peptide was determined by measuring the peak width at half height (ν1/2) of the peptide ^19F signal. […] MCL-1ΔNΔC binding to SAHBs causes a change in the ^19F chemical shift of the peptide resulting in two peptide signals (instead of peak broadening), so extent of binding was quantified by measuring the peak height of “unbound” peptide relative to the bound peptide signal.

[6] = biological target: T2, MCL-1ΔNΔC; assay: 19F NMR binding study with fluorinated SAHB; conditions: fluorinated SAHB 25 μM, MCL-1ΔNΔC 0-45 μM
Description: as §1
MCL-1ΔNΔC. The MCL-1ΔNΔC construct was grown and expressed in E. coli as previously described (see, e.g., Stewart, Nat Chem Biol., 6(6):595-601 (2010)). Transformed BL21(DE3) E. coli were grown at 37° C. to an OD of 0.8, after which they were induced with 0.5 mM IPTG. […]
as §2

T2 sequence (Q07820 172-320 limits assumed, stated change not applied): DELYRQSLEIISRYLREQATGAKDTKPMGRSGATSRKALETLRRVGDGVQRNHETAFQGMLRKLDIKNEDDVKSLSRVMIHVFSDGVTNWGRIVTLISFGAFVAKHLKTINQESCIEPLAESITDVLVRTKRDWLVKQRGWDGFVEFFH
Chain of endogenous MCL-1 (P97287 152-308 limits assumed): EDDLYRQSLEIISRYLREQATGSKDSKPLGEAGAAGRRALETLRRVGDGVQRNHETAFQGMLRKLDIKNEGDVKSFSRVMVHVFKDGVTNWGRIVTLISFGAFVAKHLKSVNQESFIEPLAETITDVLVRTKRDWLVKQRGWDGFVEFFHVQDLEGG

Substance | pull down of endogenous MCL-1 from cellular lysates [1] | pull down of recombinant VLCAD [2] | biolayer interferometry association with VLCAD [3] | biolayer interferometry association with MCL-1 [4] | 19F NMR peptide peak broadening on VLCAD titration [5] | 19F NMR binding to MCL-1ΔNΔC (chemical shift of the peptide peak) [6]
Btn-MCL-1 SAHBD: N-terminally biotinylated stapled peptide designed based on the sequence of MCL-1's BH3 domain (Biotin-RKALETLRRVGDGV[S5]RNH[S5]TAF; staple 15-19) | readily identified in the eluates | pulled down recombinant VLCAD | – | – | – | –
MCL-1 SAHBB: MCL-1 SAHB containing a different staple position (RKAL[S5]TLR[S5]VGDGVQRNHETAF; staple 5-9) | – | – | no detectable binding interaction | bind to MCL-1 | little to no peak broadening | binds directly
